Molecular target: 6x(His)-tagged SARS-CoV-1 RBD (SARS-CoV-1, strain , UniProt P59594)
Test: BLI
Conditions: both partners purified

B1: D27LE (antibody, V domains shown)
VH: QVQLQQSGAEVKKPGSSVKVSCKASGGTFGNWSISWVRQAPGQGLEWMGGIDPSRGEATYAQKFQGRVTITTDESTSTAYMELSSLRSEDTAVYYCARETWYTSGGMDVWGQGTTVTVSS
VL: SYELTQPPSVSVAPGKTARITCGGNNIGRKSVHWYQQKPGQAPVLVVYDDSDRPSGIPERFSGSNSGNTATLTISRVEAGDEADYYCQVYDLWSSDYVFGTGTKVEIK
**Q.** How did the Kd turn out when B1 was run?
**A.** < 0.01 nM

From paper PMC9714666 (Frontiers in Immunology, 2022)
